# Test results as given in article PMC4605427.
# Columns and labels:
# [1] = molecular target: phosphorylated cytosolic domain of the TCR γ-chain (pCD3γCD) (UniProt P09693); experiment: BLI
# [2] = molecular target: GST-pCD3γCD fusion protein (UniProt P09693); experiment: ELISA
Kd [1] [nM],"KD2 (weak set), fold against its KD1 [1] [fold]","koff1, ratio against AADN and tSH2 [1] [fold]","koff2 (weak set), fold against its koff1 [1] [fold]","kon1, fold against AADN and tSH2 [1] [fold]","kon2 (weak set), fold against its kon1 [1] [fold]","fold concentration needed, against YY, to compete similarly [2] [fold]",Substance
10,–,–,–,–,–,–,recombinant tSH2 module of ZAP-70 (aa 1–256) (from UniProt P43403 1-256) (domain or fragment)
–,10,0.5,20,2,2,3,"ZAP-70 phenylalanine mutant Y315/Y319F, kinase-dead (FFDN) (from UniProt P43403 1-619) (enzyme)"
–,10,0.5,20,2,2,–,kinase-dead D461N mutant of ZAP-70 (YYDN) (from UniProt P43403 1-619) (enzyme)
